Laboratory results as given in paper PMC8545396.
Values joined by “and” are separate entries in the source; they are usually repeats but may differ in a detail not shown here. Identical values can stand only once. Like-named read-outs stand apart in the source and are kept apart here.

Tests used:
[1] = target: M2-mCherry2 (mCherry2 fused to the extracellular terminus of matrix protein 2 from influenza A/chicken/FPV/Rostock/1934) (influenza A/chicken/FPV/Rostock/1934)
[2] = target: M2-mCherry2 (mCherry2 fused to the extracellular terminus of matrix protein 2 from influenza A/chicken/FPV/Rostock/1934) (influenza A/chicken/FPV/Rostock/1934); remark: listed apart in the source
[3] = target: PB2-mCherry2 (IAV polymerase basic protein 2, influenza A/human/WSN/1933) (influenza A/human/WSN/1933)
[4] = target: PA-mEYFP (IAV polymerase acidic protein, influenza A/human/WSN/1933) (influenza A/human/WSN/1933) (UniProt P15659)
[5] = target: PA-mEYFP (IAV polymerase acidic protein, influenza A/human/WSN/1933) (influenza A/human/WSN/1933) (UniProt P15659); remark: listed apart in the source
[6] = target: PB1-mEGFP (IAV polymerase basic protein 1, influenza A/human/WSN/1933) (influenza A/human/WSN/1933)
[7] = target: PB2-mCherry2 (IAV polymerase basic protein 2, influenza A/human/WSN/1933) (influenza A/human/WSN/1933); remark: listed apart in the source

## LC3-mEYFP (from UniProt Q62625 1-120) (natural protein)
[1]
  relative cross-correlation (rel.cc.): 0.52
[2]
  stoichiometry N: 0.5 LC3:M2 and 0.25 LC3:M2

## M2-mCherry2 (mCherry2 fused to the extracellular terminus of matrix protein 2 from influenza A/chicken/FPV/Rostock/1934) (natural protein)
[1]
  normalized molecular brightness: 2.24
  stoichiometry N: 3.1

## PA-mEYFP (IAV polymerase acidic protein, influenza A/human/WSN/1933) (from UniProt P15659 1-716) (natural protein)
[3]
  relative cross-correlation (rel.cc.): 0.39
[4]
  stoichiometry N: 1.8

## PB1-mEGFP (IAV polymerase basic protein 1, influenza A/human/WSN/1933) (natural protein)
[3]
  relative cross-correlation (rel.cc.): 0.47
[5]
  relative cross-correlation (rel.cc.): 0.93
[6]
  stoichiometry N: 2.1

## PB2-mCherry2 (IAV polymerase basic protein 2, influenza A/human/WSN/1933) (natural protein)
[7]
  stoichiometry N: 2.2
